We go through one substance from article PMC5146997.

The target of assay [1] is EphA2 at the surface of PC3 cells (endogenous) (human (endogenous in PC3)) (UniProt P29317). The assay is described as follows: in-cell binding assay.
Assay [2] deals with EphA2-Fc (entire ectodomain of EphA2 fused to the Fc fragment of IgG) (UniProt P29317). Put plainly: ELISA.
Chain of EphA2-Fc (entire ectodomain of EphA2 fused to the Fc fragment of IgG) (P29317 24-537): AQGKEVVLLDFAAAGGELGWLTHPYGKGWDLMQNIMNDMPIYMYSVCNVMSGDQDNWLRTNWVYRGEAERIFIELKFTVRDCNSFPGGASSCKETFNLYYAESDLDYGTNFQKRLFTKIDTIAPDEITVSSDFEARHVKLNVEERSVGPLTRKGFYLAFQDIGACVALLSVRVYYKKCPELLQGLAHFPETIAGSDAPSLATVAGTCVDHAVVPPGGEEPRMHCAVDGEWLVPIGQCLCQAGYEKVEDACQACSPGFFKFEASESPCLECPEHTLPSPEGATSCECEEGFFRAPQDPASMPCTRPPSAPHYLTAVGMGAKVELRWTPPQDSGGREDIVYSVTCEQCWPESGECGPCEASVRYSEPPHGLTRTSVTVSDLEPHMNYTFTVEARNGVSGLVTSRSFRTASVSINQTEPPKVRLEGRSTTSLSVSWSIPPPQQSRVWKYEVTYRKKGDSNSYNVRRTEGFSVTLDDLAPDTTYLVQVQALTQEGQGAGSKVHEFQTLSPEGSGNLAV

Chain of EphA2 at the surface of PC3 cells (endogenous) (human (endogenous in PC3)) (P29317 24-976): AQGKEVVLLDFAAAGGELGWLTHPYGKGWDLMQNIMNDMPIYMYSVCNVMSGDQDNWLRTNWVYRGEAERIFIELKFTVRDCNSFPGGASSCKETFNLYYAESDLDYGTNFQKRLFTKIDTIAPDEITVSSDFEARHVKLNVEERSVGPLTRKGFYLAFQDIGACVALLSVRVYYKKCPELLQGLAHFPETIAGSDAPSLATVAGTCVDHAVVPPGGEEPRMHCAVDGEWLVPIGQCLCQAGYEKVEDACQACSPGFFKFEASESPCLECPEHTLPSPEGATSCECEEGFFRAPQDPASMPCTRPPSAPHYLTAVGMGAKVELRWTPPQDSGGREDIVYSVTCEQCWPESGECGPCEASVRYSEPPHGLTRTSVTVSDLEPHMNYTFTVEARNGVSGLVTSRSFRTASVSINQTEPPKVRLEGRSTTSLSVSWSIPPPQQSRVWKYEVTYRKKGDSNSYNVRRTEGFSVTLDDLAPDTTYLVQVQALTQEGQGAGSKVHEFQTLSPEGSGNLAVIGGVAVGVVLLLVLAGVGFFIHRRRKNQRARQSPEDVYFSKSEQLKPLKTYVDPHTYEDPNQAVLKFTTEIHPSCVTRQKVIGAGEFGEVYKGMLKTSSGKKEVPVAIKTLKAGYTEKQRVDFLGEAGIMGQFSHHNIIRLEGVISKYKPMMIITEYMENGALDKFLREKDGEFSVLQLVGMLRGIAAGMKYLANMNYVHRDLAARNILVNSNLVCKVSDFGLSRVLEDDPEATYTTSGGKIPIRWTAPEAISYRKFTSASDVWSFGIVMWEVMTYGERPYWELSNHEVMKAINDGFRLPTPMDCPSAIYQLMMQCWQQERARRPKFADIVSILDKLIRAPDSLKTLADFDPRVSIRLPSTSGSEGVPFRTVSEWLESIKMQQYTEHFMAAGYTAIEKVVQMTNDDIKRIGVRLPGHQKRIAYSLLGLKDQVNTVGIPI

For the substance “EphrinA1-Fc (from UniProt P20827 19-182) (Fc fusion)”, the IC50 in assay [1] worked out at 400 nM. Besides, in assay [2], the Kd worked out at 17 nM.
